Reference: US20250352661A1 (MYTHIC THERAPEUTICS, published 2025)
Numbering of substitutions follows the chain as printed. Numbers in names are those of the source.

T1: Human LRRC15 Protein, His Tag (Acro Biosystems) (human, UniProt Q8TF66 22-538, limits assumed)
T1 sequence (looked up): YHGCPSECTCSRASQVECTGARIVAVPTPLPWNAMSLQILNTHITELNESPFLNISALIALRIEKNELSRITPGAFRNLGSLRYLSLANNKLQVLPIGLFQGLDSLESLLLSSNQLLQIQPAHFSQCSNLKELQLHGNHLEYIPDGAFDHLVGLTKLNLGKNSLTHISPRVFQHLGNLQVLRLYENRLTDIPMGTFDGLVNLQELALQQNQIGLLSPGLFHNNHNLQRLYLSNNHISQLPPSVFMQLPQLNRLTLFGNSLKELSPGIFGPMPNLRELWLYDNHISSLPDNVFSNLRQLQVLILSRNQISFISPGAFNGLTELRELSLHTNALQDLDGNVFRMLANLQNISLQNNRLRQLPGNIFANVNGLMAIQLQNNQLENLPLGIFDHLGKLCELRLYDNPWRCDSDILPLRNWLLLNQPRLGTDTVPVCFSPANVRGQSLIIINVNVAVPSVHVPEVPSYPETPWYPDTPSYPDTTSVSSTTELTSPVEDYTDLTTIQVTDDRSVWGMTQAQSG

T2: LRRC15 on the surface of LRRC15+ cells (SAOS-2, U87MG) (UniProt Q8TF66 22-581, limits assumed)
T2 sequence (looked up): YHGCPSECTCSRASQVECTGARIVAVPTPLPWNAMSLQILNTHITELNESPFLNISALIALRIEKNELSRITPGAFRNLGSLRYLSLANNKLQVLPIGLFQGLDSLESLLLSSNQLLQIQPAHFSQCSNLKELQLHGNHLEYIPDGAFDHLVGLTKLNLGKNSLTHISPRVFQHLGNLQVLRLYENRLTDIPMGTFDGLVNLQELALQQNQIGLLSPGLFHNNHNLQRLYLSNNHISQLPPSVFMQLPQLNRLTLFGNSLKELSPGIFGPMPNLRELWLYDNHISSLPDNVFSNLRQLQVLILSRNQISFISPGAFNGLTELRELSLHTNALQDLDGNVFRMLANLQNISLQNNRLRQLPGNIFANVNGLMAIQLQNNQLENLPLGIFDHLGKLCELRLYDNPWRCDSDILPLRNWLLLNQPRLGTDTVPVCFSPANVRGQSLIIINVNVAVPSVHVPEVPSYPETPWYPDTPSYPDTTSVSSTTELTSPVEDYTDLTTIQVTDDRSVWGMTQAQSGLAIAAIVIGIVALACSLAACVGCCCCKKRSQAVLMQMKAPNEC

T3: LRRC15 on LRRC15 positive cell lines SAOS2 and G292 (UniProt Q8TF66 22-581, limits assumed)
T3 construct: whole, on cells
T3 sequence (looked up): T2 sequence (looked up)

B1: MYT6111 (antibody, V domains shown)
VH: QEQLEESGGDLVKPGASLTLTCTASGLDFRRTNYICWVRQAPGKGLEWIGCIYIADVVHYYASWAKGRFTFSKTSSTTVTLQMTSLTAADTATYFCARGHDGGFVYGMDLWGPGTLVTVSS
VL: DVVMTQTPASVSEPVGGTVTIKCQASQSIGNYLSWYQQKPGQRPKRLIYSASTLPSGVPSRFKGAGSGTEFTLTISDLESADAATYYCQNNYWLAGYGHPFGGGTEVVVK
notes: chimeric rabbit 15G7 variant (rabbit variable domains, human constant regions); also called 15G7 VH A100H
B2: MYT6114 (antibody, V domains shown)
VH: B1 VH with H100A, G103H
VL: B1 VL
notes: chimeric rabbit 15G7 variant (rabbit variable domains, human constant regions); also called 15G7 VH G103H
B3: MYT6113 (antibody, V domains shown)
VH: B1 VH with H100A, G102H
VL: B1 VL
notes: chimeric rabbit 15G7 variant (rabbit variable domains, human constant regions); also called 15G7 VH G102H
B4: MYT6115 (antibody, V domains shown)
VH: B1 VH with H100A, F104H
VL: B1 VL
notes: chimeric rabbit 15G7 variant (rabbit variable domains, human constant regions); also called 15G7 VH F104H
B5: MYT6121 (antibody, V domains shown)
VH: B1 VH with H100A, L110H
VL: B1 VL
notes: chimeric rabbit 15G7 variant (rabbit variable domains, human constant regions); also called 15G7 VH L110H
B6: MYT6117 (antibody, V domains shown)
VH: B1 VH with H100A, Y106H
VL: B1 VL
notes: chimeric rabbit 15G7 variant (rabbit variable domains, human constant regions); also called 15G7 VH Y106H
B7: MYT6119 (antibody, V domains shown)
VH: B1 VH with H100A, M108H
VL: B1 VL
notes: chimeric rabbit 15G7 variant (rabbit variable domains, human constant regions); also called 15G7 VH M108H
B8: MYT6116 (antibody, V domains shown)
VH: B1 VH with H100A, V105H
VL: B1 VL
notes: chimeric rabbit 15G7 variant (rabbit variable domains, human constant regions); also called 15G7 VH V105H
B9: MYT6112 (antibody, V domains shown)
VH: B1 VH with H100A, D101H
VL: B1 VL
notes: chimeric rabbit 15G7 variant (rabbit variable domains, human constant regions); also called 15G7 VH D101H
B10: MYT6120 (antibody, V domains shown)
VH: B1 VH with H100A, D109H
VL: B1 VL
notes: chimeric rabbit 15G7 variant (rabbit variable domains, human constant regions); also called 15G7 VH D109H
B11: MYT6118 (antibody, V domains shown)
VH: B1 VH with H100A, G107H
VL: B1 VL
notes: chimeric rabbit 15G7 variant (rabbit variable domains, human constant regions); also called 15G7 VH G107H
B12: MYT8391-c-ADC (antibody, human IgG1, kappa, V domains shown)
VH: EVQLVESGGGLVQPGGSLRLSCTASGLDFRRTNYICWVRQAPGKGLEWVGCIYIADVVHYYASWAKGRFTFSRDTSKNTVYLQMNSLRAEDTAVYYCARGADGGFHYGMDLWGQGTLVTVSS
VL: EIVMTQSPSTLSASVGDRVIITCQASQSIGNYLSWYQQKPGKAPKRLIYSASTLPSGVPSRFSGSGSGAEFTLTISSLQPDDFATYYCQNNYWLAGYGHPFGQGTKLTVLR
modifications: vcMMAE conjugated to the cysteine at position 205 of the light chain
B13: MYT2737-c-ADC (antibody, human IgG1, kappa, V domains shown)
VH: EVQLVQSGAEVKKPGASVKVSCKASGYKFSSYWIEWVKQAPGQGLEWIGEILPGSDTTNYNEKFKDRATFTSDTSINTAYMELSRLRSDDTAVYYCARDRGNYRAWFGYWGQGTLVTVSS
VL: DIQMTQSPSSLSASVGDRVTITCRASQDISNYLNWYQQKPGGAVKFLIYHTSRLHSGVPSRFSGSGSGTDYTLTISSLQPEDFATYFCQQGEALPWTFGGGTKVEIKR
modifications: vcMMAE conjugated to the cysteine at position 205 of the light chain
B14: MYT3315-c-ADC (antibody, human IgG1, kappa, V domains shown)
VH: EVQLVESGGGLVQPGGSLRLSCAVSGFSLTSYGVHWVRQATGKGLEWLGVIWAGGSTNYNSALMSRLTISKENAKSSVYLQMNSLRAGDTAMYYCATHMITEDYYGMDYWGQGTTVTVSS
VL: DIVMTQSPDSLAVSLGERATINCKSSQSLLNSRTRKNYLAWYQQKPGQSPKLLIYWASTRHSGVPDRFSGSGSGTDFTLTISSLQAEDVAVYYCKQSYNLPTFGGGTKVEIKR
modifications: vcMMAE conjugated to the cysteine at position 205 of the light chain
B15: MYT8483 (antibody, IgG1, V domains shown)
VH: EVQLVESGGGLVQPGGSLRLSCTASGFSFSGSYWICWVRQAPGKGLEWVGCINGGSLDITYYASWAKGRFTISRDTSKNTVYLQKTSLRAEDTAVYYCASDTSYTAYGNFYFNLWGQGTLVTVSS
VL: EIVMTQSPSPLSASVGDRVIITCQSSQSVLNNNWLAWYQQKPGKAPKLLIYDASSLASGVPSRFSGSGSGAEFTLTISSLQPDDFATYYCQGEFSCGSADCNAFGQGTKLTVL
notes: Humanized 24D9; also called hu24D9; Parental
B16: MYT8500 (antibody, V domains shown)
VH: B15 VH with L57H
VL: B15 VL
notes: also called hu 24D9 HC Hydrophobicity Variant; hu24D9 HC Dev
B17: MYT8391 (antibody, V domains shown)
VH: B12 VH
VL: EIVMTQSPSTLSASVGDRVIITCQASQSIGNYLSWYQQKPGKAPKRLIYSASTLPSGVPSRFSGSGSGAEFTLTISSLQPDDFATYYCQNNYWLAGYGHPFGQGTKLTVL
notes: Humanized 15G7 variant (HC descriptor V106H); also called hu 15G7 HC his variant; hu 15G7 HC his scan variant
B18: MYT8416 (antibody, V domains shown)
VH: B12 VH with H106V
VL: B17 VL with W93H
notes: Humanized 15G7 variant (LC descriptor W109H); also called hu 15G7 LC his variant
B19: MYT8417 (antibody, V domains shown)
VH: B12 VH with H106V
VL: B17 VL with G96H
notes: Humanized 15G7 variant (LC descriptor G112H); also called hu 15G7 LC his variant
B20: MYT8415 (antibody, V domains shown)
VH: B12 VH with H106V
VL: B17 VL with Y92H
notes: Humanized 15G7 variant (LC descriptor Y108H); also called hu 15G7 LC his variant
B21: MYT9523 (antibody, V domains shown)
VH: EVQLVESGGGLVQPGGSLRLSCTASGFSFSSSHWICWVRQAPGKGLEWVGCIYAGSIGSTYYASWAKGRFTISRDTSKNTVYLQMNSLRAEDTAVYYCARAPNDIYNYYFNLWGQGTLVTVSS
VL: EIVMTQSPSTLSASVGDRVIITCQASENIYNYLAWYQQKPGKAPKLLIYYASTLDSGVPSRFSGSGSGAEFTLTISSLQPDDFATYYCQSGYVSKSSTFGQGTKLTVL
notes: LC descriptor A68D; also called hu29F1 LC Asp Var
B22: MYT9731 (antibody, V domains shown)
VH: B21 VH
VL: B21 VL with N28E, D55A
notes: LC descriptor N28E; also called hu29F1 LC Glu Var

Target: T1, Human LRRC15 Protein, His Tag (Acro …)
Assay: BLI; dissociation pH 7.4 black, pH 5.4 grey [2/2); D00007 FIG. 1E (2/2]
Source text: For each individual plot, antigen binding proteins were captured on anti-human Fc biosensors and associated with LRRC15 at pH 7.4. Dissociation was at pH 7.4 (black) or pH 5.4 (grey). Major X-axis ticks=100 seconds, with left dashed vertical line=0 seconds. Major Y-axis ticks=0.5 nm and octet plots are shown MYT5712 and MYT6080-MYT6121.
Multiple LRRC15-binding monoclonal antibodies have been described in the literature and can be used as a template for engineering pH-dependent binding. We selected discovery RabMAb clone 15G7 (rabbit VH SEQ ID NO: 378, rabbit VL SEQ ID NO: 451; humanized VH SEQ ID NO: 382, humanized VL SEQ ID NO: 455) as a LRRC15-binding monoclonal antibody for pH-engineering via histidine scanning. […] To generate pH-dependent sequence variants, individual amino acid residues within the heavy chain CDRs were systematically substituted with a histidine (or alanine if H was already present in a given position; e.g., MYT6099), one at a time (rabbit, MYT6080-6121). Desirable mutations were transferred to a humanized framework (humanized, MYT 8387-8411). After allowing for four days of protein expression, cell culture supernatants were collected, quantified by SDS-PAGE analysis, and the pH dependence of the variant was evaluated using biolayer interferometry (BLI) on an Octet RED 96e instrument. Briefly, cell culture supernatants were diluted based on qualitative expression level of the variant determined by visual examination of SDS-PAGE gels, 5 μL of cell culture supernatant was diluted into 195 μL of 1×PBST, pH 7.4 for high expressors, 25 μL of cell culture supernatant was diluted into 175 μL of 1×PBST, pH 7.4 for medium expressors and 100 μL of cell culture supernatant was diluted into 100 μL of 1×PBST, pH 7.4 for low expressors for loading onto the sensor tips.

| Binder | binding result |
| --- | --- |
| B1 | binds |
| B2 | binds |
| B3 | binds |
| B4 | binds |
| B5 | binds |
| B6 | binds |
| B7 | binds |
| B8 | binds |
| B9 | binds |
| B10 | binds |
| B11 | no binding (tested: 50 nM LRRC15) |

Target: T2, LRRC15 on the surface of LRRC15+ cells …
Assay: cell-based or functional assay

| Binder | 20 nM Efficacy (cytotoxicity of candidates against SAOS-2 cells) |
| --- | --- |
| B12 | 63.8 |
| B13 | 20.2 |
| B14 | 22 |

Target: T3, LRRC15 on LRRC15 positive cell lines …
Assay: cell binding on G292 cells (LRRC15 positive), pH 7.4
Parameters: unit not given here

| Binder | Affinity |
| --- | --- |
| B15 | 2.07 |
| B16 | 2.21 |
| B17 | 0.336 |
| B18 | 1.37 |
| B19 | 0.76 |
| B20 | 1.11 |

Target: T3, LRRC15 on LRRC15 positive cell lines …
Assay: cell binding on SAOS2 cells (LRRC15 positive), pH 7.4
Parameters: unit not given here

| Binder | Affinity |
| --- | --- |
| B15 | 1.65 |
| B16 | 1.22 |
| B17 | 0.483 |
| B18 | 1.15 |
| B19 | 0.554 |
| B20 | 0.754 |
| B21 | 0.817 |
| B22 | 0.352 |
